Measured values published in patent publication US20220175873A1.
No end group written: not given here.

Experiments:
[1] = target: FQSE (SEQ ID NO:10)-specific binding sites in rat cortex membranes (rat); assay: radioligand analysis, rat cortex membranes, incubation 10 min at 37 °C
[2] = target: FQSE (SEQ ID NO:10)-specific binding sites in rat cortex membranes (rat); assay: radioligand analysis, rat cortex membranes, incubation 30 min at 24 °C
[3] = target: FQSE (SEQ ID NO:10)-specific binding sites in rat cortex membranes (rat); assay: radioligand analysis, rat cortex membranes, buffer with added salts (NaCl, KCl, KH2PO4, CaCl2, MgCl2)
[4] = target: FQSE (SEQ ID NO:10)-specific binding sites in rat cortex membranes (rat); assay: radioligand analysis, rat cortex membranes, incubation 25 min at 24 °C (selected condition)
[5] = target: FQSE (SEQ ID NO:10)-specific binding sites in rat cortex membranes (rat); assay: radioligand analysis, rat cortex membranes, incubation 10 min at 4 °C
[6] = target: FQSE (SEQ ID NO:10)-specific binding sites in rat cortex membranes (rat); assay: radioligand analysis, rat cortex membranes, incubation 20 min at 4 °C
[7] = target: FQSE (SEQ ID NO:10)-specific binding sites in rat cortex membranes (rat); assay: radioligand analysis with [3H] FQSE and unlabeled FQSE on membranes isolated by various techniques
[8] = target: FQSE (SEQ ID NO:10)-specific binding sites in rat cortex membranes (rat); assay: radioligand analysis, rat cortex membranes, incubation 20 min at 37 °C
[9] = target: FQSE (SEQ ID NO:10)-specific binding sites in rat cortex membranes (rat); assay: radioligand analysis, rat cortex membranes, incubation 30 min at 37 °C
[10] = target: FQSE (SEQ ID NO:10)-specific binding sites in rat cortex membranes (rat); assay: radioligand analysis, rat cortex membranes, incubation 20 min at 24 °C
[11] = target: NMDA receptors of rat hippocampal plasma membranes (rat); assay: radioligand analysis with [^3H]-FQSE and unlabeled FQSE on rat hippocampal membranes isolated for NMDA receptors (negative control)
[12] = target: GABAA receptor of rat cerebral cortex plasma membranes (rat); assay: [^3H]-Flunitrazepam radioligand analysis (benzodiazepine site), 25 min pre-incubation + 30 min incubation, 4 °C; FQSE 10^-5 M
[13] = target: GABAA receptor of rat cerebral cortex plasma membranes (rat); assay: [^3H]-Flunitrazepam radioligand analysis (benzodiazepine site), 25 min pre-incubation + 30 min incubation, 4 °C; FQSE 10^-4 M
[14] = target: FQSE (SEQ ID NO:10)-specific binding sites in rat cortex membranes (rat); assay: displacement of [^3H]-FQSE by unlabeled FQSE, rat cortex membranes, 25 min at room temperature
[15] = target: GABAA receptor of rat cerebral cortex plasma membranes (rat); assay: [^3H]-Flunitrazepam radioligand analysis (benzodiazepine site), 30 min incubation, 4 °C; FQSE 10^-4 M
[16] = target: GABAA receptor of rat cerebral cortex plasma membranes (rat); assay: [^3H]-Flunitrazepam radioligand analysis (benzodiazepine site), 25 min pre-incubation + 30 min incubation, 24 °C; FQSE 10^-4 M
[17] = target: GABAA receptor of rat cerebral cortex plasma membranes (rat); assay: [^3H]-Flunitrazepam radioligand analysis (benzodiazepine site), 30 min incubation, 24 °C; FQSE 10^-4 M
[18] = target: GABAA receptor of rat cerebral cortex plasma membranes (rat); assay: [^3H]-Flunitrazepam radioligand analysis (benzodiazepine site), 30 min incubation, 24 °C; FQSE 10^-5 M
[19] = target: GABAA receptor of rat cerebral cortex plasma membranes (rat); assay: [^3H]-Flunitrazepam radioligand analysis (benzodiazepine site), 30 min incubation, 4 °C; FQSE 10^-5 M
[20] = target: GABAA receptor of rat cerebral cortex plasma membranes (rat); assay: [^3H]-Flunitrazepam radioligand analysis (benzodiazepine site), 25 min pre-incubation + 30 min incubation, 24 °C; FQSE 10^-5 M

% percentage of specific binding of total binding [1] | % percentage of specific binding of total binding [2] | percentage of specific binding [3] | % percentage of specific binding of total binding [4] | % percentage of specific binding of total binding [5] | % percentage of specific binding of total binding [6] | specific FQSE binding percentage of the total binding [7] | % percentage of specific binding of total binding [8] | % percentage of specific binding of total binding [9] | % percentage of specific binding of total binding [10] | difference between total and non-specific binding [11] | Specific binding of [^3H]-Flunitrazepam, relative to control levels, % [12] | Specific binding of [^3H]-Flunitrazepam, relative to control levels, % [13] | IC50 [14] | Specific binding of [^3H]-Flunitrazepam, relative to control levels, % [15] | Specific binding of [^3H]-Flunitrazepam, relative to control levels, % [16] | Specific binding of [^3H]-Flunitrazepam, relative to control levels, % [17] | Specific binding of [^3H]-Flunitrazepam, relative to control levels, % [18] | Specific binding of [^3H]-Flunitrazepam, relative to control levels, % [19] | Specific binding of [^3H]-Flunitrazepam, relative to control levels, % [20] | Binder
72% | 78% | 63% | 86% | 47% | 48% | 0 to 47% | 79% | 77% | 75% | 11% | – | – | – | – | – | – | – | – | – | FQSE (also: tritium label ([3H]), position not given here) [[^3H]-FQSE (SEQ ID NO:10), tritium radiolabeled peptide]
– | – | – | – | – | – | – | – | – | – | – | 101% | 101% | 2000 nM | 100% | 101% | 101% | 101% | 100% | 99.8% | FQSE [FQSE (SEQ ID NO:10) peptide, unlabeled]
